Experimental findings from the supplement of paper PMC11502859 are described below.

The test system of this data set is HEK293T. As to the kind of experiment: median enrichment of reporter reads in eGFP-reduced (low/intermediate) vs eGFP-high sorted cells (eGFP-extension fusion abundance) (ratio); higher = stronger loss of eGFP-fusion protein abundance (more destabilising extension).
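Note: lentiviral eGFP-IRES-mCherry reporter pool sorted by FACS 96 h post-transduction, gated on mCherry-high cells, Illumina read counts normalized per million, median across four biological replicates.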

On to “CPCSRVSQGHFAATAAFPEIKQPGAVASELRGAGGRARTLGLGHGALSLKATFLTYSLYITQRP [CTNS]”, for which the median enrichment was determined as 3.76.

With DDDDDDDDD [Asp09], the median enrichment amounted to 0.213.

For the substance YHPSG [FAM183A], the median enrichment came to 0.527. With KTTFPKENIRGFHC [CPVL], the median enrichment is 0.477. On to “RWCWGLGRGGELGCQNSMDMFLWMEGRAFVTFCTYSFCGCFDKGMARELVSIISFILFWL [BCO1]”, for which the median enrichment worked out at 16. Under “SDARQFLDLGGLKRPPSCLLSFSVSSFLLVFFILFSFHQPSCILALQRDRDRSSAQGFSLPLFIMGGGYHPPSQSCEESGTSF [NOTCH3]” stands 5.68; under QNIQVINELCYGIIALLYAG [CC2D2B], 8.94; under SDASTGPSLFCPQP [HSPB8], 0.471. As for “CVETCAPRRGAAVREGLCTAAPATDPVRKYLLGASPGLGLGMRWSPGLSFLSTQWVILASTCRAPCQALPTHLPV [OLFML2A]”, the median enrichment was found to be 7.4.

Turning to GRTRRFNRASVVSPVGLQKSGAFAICLK, the median enrichment is 10.9.

For EAWLPPESCSLKLGF [POU2AF1], the median enrichment came to 0.528. With LFE [OR12D2], the median enrichment turned out to be 0.755. As to CYSFQLLPLCLPG [TRIM55], the median enrichment came out at 7.06. Consider “WSFSHSSPSQRCDGRWTLSGEDALLLGRCSGSFSGARTEAPCDFRPGSMWACNFLHSQLGPIPGFKMVAIPEESP [SUSD1]”, for which the median enrichment amounted to 3.48. With LLKTCSTTVLDTH [ATF2], the median enrichment amounted to 8.11. Take WSLVTPIEI [OR52A5]: the median enrichment is 7.53. Consider LNLNGHYKLSNST [ARMC4], for which the median enrichment turned out to be 1.8. For RRKEFCKETIRFVKDILHNI [PPP1CB], the median enrichment came to 7.66. CEA [NPSR1]: the median enrichment is 10.3. With EFK [BBS9], the median enrichment worked out at 0.267. As to “EETTHPEPQHCLTLGTRDPTEMFWRAGGFPQSPPSSSPSNQSCV [SERPINA6]”, the median enrichment stood at 0.705. Regarding GTLTV [ABCB1], the median enrichment was 0.767. For the substance YIMRHTV [TBC1D32], the median enrichment came to 5.87.

Regarding CRKVSKNVNIL [C2orf49], the median enrichment came to 0.739. Take SPRSWILQCINKRSQAGFISETIN [SGCD]: the median enrichment amounted to 39.2. As for LGQAAPVLGEGG [DEPDC5], the median enrichment came to 1.71. With LADI [MED30], the median enrichment was found to be 0.335. Regarding LPLPFTLT [ATF6B], the median enrichment is 3.98.

Consider YSQILALLSG [CHRNA9], for which the median enrichment stood at 12.2. Take “RDSRTKSLCMKLPTMNVMMLYTKVTRQLSLSGFRSVFGTSLSSTYSAHGNYKLYISFPIVFQNVFSTEHA [RUFY2]”: the median enrichment stood at 8.53. Under LAPRAEKMLGTHPAPPSTNTSGWGRGRTL [VPS26B] stands 1.3; under RQWLSCDDRQNGGEICLWEVEP [FBXO45], 6.14; under DDDD [Asp04], 0.37. For “RSCAAQSQTPAPTTYFCYTQEHFRKLSQLIFCFSSMSILSVSHFEDFFSLLYLCFSFFGFYFVVLSVIFNVPKICTCSIKNVV [HOOK3]”, the median enrichment stood at 3.09. Regarding “SRRRLGLCSQGLWLMMIDAPFSHALSSHLASAGQNPSPDVCNLCLEYLGVVEEQIIPSKHQALGFLEQAESQ [USP39]”, the median enrichment was 3.94. Take LLLPLGFTSQTQPLEQPDPAE [CHAT]: the median enrichment turned out to be 6.49. With QLYHYSRSSSQHHLLATWDV [GCG], the median enrichment turned out to be 16.8.

CGSRPGRPFARRRGMGERT [ARHGEF1]: the median enrichment amounted to 7.51. On to CFWNRVKLSQRRRKSPGICTS [PPP1R14C], for which the median enrichment is 13.7. As for “ASVLLRGAVCGEGLSWQGKHLRVTLTLGPLLFLKRLLATGKKNDLATLEETSAKEDVLASLSYFCSVVDLHIVVYLVWKCVSK [POLR1D]”, the median enrichment was determined as 7.42. Under “ECPLFLFLLSPFSSLRSIGPLLSIFITRCFPLKHAHATVTKTNNYHFPNFIQNHFSVFLFPTPPTTFNDEIP [PHYHIPL]” stands 15.5. Turning to QLDHDLVQ [TRAT1], the median enrichment amounted to 0.266. For SQFNLKFLISPTTIY [TSEN2] the value was 8.83; for SKERHTSEQRSYMCTK [DEFB114], 0.227. On to GMSVVSCLQTPSPAQFI [SAMHD1], for which the median enrichment is 1.45.

Turning to LNGVQAQRPLGVMTKCSCTTVLKELRLLPFF [DYTN], the median enrichment was 8.97.

In the case of “QGPAPRTDSTRKPNDVPARRPRRAAFPLVLEKLEHPVTALFAMGTGTLFYTMLPPSPP [CARM1]”, the median enrichment worked out at 3.47. In the case of QHQ [ANKRD6], the median enrichment is 0.522. In the case of QDGWGWR [SCPEP1], the median enrichment came out at 0.778. In the case of LSYQTTY [USP51], the median enrichment was 1.11. As to SALELLNLCPWGFHPNQCQGPPLPPSK [ACY1], the median enrichment was 2. In the case of SIVLSTNLKSKGSSQSQPLCP [HIST1H3E], the median enrichment was 3.49. For “QHEKDWGGQGGQPAEMRGAGGHSPFSGLDPLRSSPTSCTDNAL [MAP3K9]”, the median enrichment stood at 0. Consider SWTVPICREA [RWDD1], for which the median enrichment turned out to be 6.01.

Regarding “GTHNLHLSGYYYRFLHAQSRRIWTQMVTITSWPTNKKVLTML [ZNF717]”, the median enrichment was 7.8. For “YLTFPAESVARGKVTIYAEMICLVPILCSTSVFQKFLINKLI [CDCA2]” the value was 4.06. In the case of CPQPGY [B3GNT7], the median enrichment was determined as 0.431. Regarding KNQGCFEGKGSLSYALLYHQDYILKRKSSM [GPR65], the median enrichment worked out at 11.5. Consider “WRSCAAQSQTPAPTTYFCYTQEHFRKLSQLIFCFSSMSILSVSHFEDFFSLLYLCFSFFGFYFVVLSVIFNVPKICTCSIKNV [HOOK3]”, for which the median enrichment stood at 2.08. For KKLRS [CRYGN] the value was 0.509; for “GGCRRRPSWCRQAGHRDPGPAQETAFFSRYNRRQKKRVPPLPNRSFWQGVPNAKTQRCGWHLLPHSFKIVKKC [FOXF1]”, 9.48.

Consider CGIII [SRGAP2], for which the median enrichment came to 1.59. As to YVPTK [ZNF334], the median enrichment came to 0.591. On to WRGLQGSLLWVPT [RNF152], for which the median enrichment came out at 6.67. As to LSPLRNIINCRL [DKK2], the median enrichment amounted to 8.81.

Turning to “SAPDSASALLTFYPVSLPSPLKAGAPRELPWSSLPGRV [PKMYT1]”, the median enrichment was 8.2. On to “IPVPEHQIPRQLMRLAQCVTEAPGSQQSRAYSAHQAEQATGRDDASGQGSAGDRDYRPAVSGPLQRLPTQGLVGVKHDDNTYT [CCDC137]”, for which the median enrichment is 0.864. “LRRGPGSLRACEEHLLPKNVWFFFLFCFRFSSFEEQREIKRRPPGRGAFSQRLGRFPKSRVPASPAEFTSVPEAAVSSS [BIN1]”: the median enrichment came out at 7.66.

“LEHWDAHRPFPSAARRACCGIYCGEHCIGMSGKSLYNLLQPSHLYNSLILFSFHNKMVYKNRSVCDVIGSNHPVLSSHSSW [COX10]”: the median enrichment is 1.73.

As to HHHHHHHH [His08], the median enrichment turned out to be 0.421.

For CNTM [STAP1], the median enrichment came out at 0.724. With WLTLSLCCLLLS [SIRPB1], the median enrichment stood at 18.9. As for CGPEASWVSLGPQKLIKE [PCP2], the median enrichment is 0.292. With LSGLCT [LCE1A], the median enrichment was 0.479.

Take YGFHKHP [SELP]: the median enrichment is 1.36.

For the substance “WAWTLEKEARSQPLAGQGRRPQEPSPPLLCVGTGGPWPVPGHSGQGPRDISTRSWRAVRIHSACPALAGQRQGRTFGKTKTVG [TCF15]”, the median enrichment came out at 5.34. Regarding “SPYPVPRCTNRWGPAPFLPGPHGPLSQEPRPLTSCPLEMVQHSGIYHPHLGPLQPPIKG [MYH14]”, the median enrichment was found to be 5.6. Take YSCVVSLLEIELA [DGKB]: the median enrichment was determined as 7.27. Under “WGPGSLHASALAPAGSKHRACPPHPEDLRAMPVPPHAGGCLGHLPAH [RHPN1]” stands 3.51; under “LIQHREVAACDLTHRFLCFLSHPGNLAFWFLPATLRLSSSAFQ [FHL2]”, 7.42. LKNCLEELY [EBF1]: the median enrichment is 2.5. For the substance QCLCRIKCLLFYMHILKEKQRPEPRRG [RIOX2], the median enrichment was 4.27. As for “QLRTLPFFPLSSLPLPFLPIYPFPSSKSTQGEENKMTTQDLVAKILHSKSSFV [FGF12]”, the median enrichment amounted to 4.18. For “KTNKMRSSLWSFNSLMQIKTQTSLQALAYYSCIKNFGWGDLGA [MTRNR2L7]” the value was 7.22. In the case of “LGNCWLAWHHHTATASHLLCQGGTSSAGACPVLCGRCCVLLNTAGPAITPWAWRSLGVSRCGGGQPGWPHSITGTACLGTRFP [PIGQ]”, the median enrichment came to 5.81. On to CCCC [Cys04], for which the median enrichment stood at 2.06. Regarding “EPVKNHAKAKTRSAERAHGSSRLVGDQAHLICTNCSTC [OCSTAMP]”, the median enrichment came to 3.35. In the case of RLLTHRHNLGH [MMP19], the median enrichment amounted to 8.57.

On to WPVRPLSSPS [TBL3], for which the median enrichment came out at 0.256. For “PARVSGPRSIENTTTMARWKGLLVPASSCPPWCRWPGQPTGLGTGQAGPGRGLSLGGNKSRPTRRCCSGSRCRCRDKSAAVSG [MLST8]” the value was 9; for “WGWRQLSSRSLGFAALAAVTRNCPGLGGELGGP [ACP7]”, 8.55; for “RILPNALSENAELPFLFASFIFNIHNVVCLKVGFEVCAAYSFHLSPRFPSL [RRAGA]”, 15.7. Under SGSIFLIDEKNNSVMAIYPC [NDUFA1] stands 9.19; under WLHW [RIMKLB], 3.98; under “RACGAAGAGEASRGRVLRQELDSPTLLSSRQGPGSHILLTLERLELTPLDGKCISEKGKAAWGSPI [SLC1A7]”, 9.89. Consider “GGPMGMSMAQPSYTPPQMTPHPTQLRHGPPMHSYLPSHPHHPAMMMHGGPPTHPGMTMSAQSPTMLNSVDPNVGGQVMDIHAQ [MEIS2]”, for which the median enrichment was determined as 2.36.

With “EFFLELKHPRMPLHVFHSPHLQTSLLFLTRPESKLPSLGNSGEGVSCTTYHTPSHPVSDFGMDSGKLGPSLNRVMYLNVCYFQ [HSPA1L]”, the median enrichment amounted to 5.31. Under QNRIEQNRIE [PCSK5] stands 0.813; under YVLILPSH [HSPA4L], 10.7; under “GGQCLPAPPLASSSAPRVPSVDPIRPAMASYSKMV [ACO2]”, 0.291.
